{"source": "patent US20250195573A1", "target": "MART-1(27-35) presented by HLA-A2 on A375 melanoma cells (human) (UniProt Q16655)", "assay": "cell-based or functional assay", "data": [{"substance": "DMF5 β:CD3z:MyD88 (from UniProt P20963 52-164; Q99836 1-155) (TCR)", "values": [{"measurement": "TNFa, IFNg, or IL-2 in supernatant by ELISA, T cells with peptide-pulsed A375 cells (× less antigen)", "result": 10}]}]}
